Results on one substance are retold here after article PMC5712619, “3-Sulfogalactosyl-dependent adhesion of Escherichia coli HS multivalent adhesion molecule is attenuated by sulfatase activity” (The Journal of Biological Chemistry, 2017).

The target of the experiment is mucin from porcine stomach type II (porcine). The experiment is described as follows: ELISA; as a2, but mucin type II was first treated with supernatant of the sulfatase-deficient B. thetaiotaomicron anSME mutant for 24 h or 72 h. A general note: An ELISA detects its analyte on a solid surface through an enzyme-linked reagent.
Sequence of mucin from porcine stomach type II (porcine) (main, as listed by the source): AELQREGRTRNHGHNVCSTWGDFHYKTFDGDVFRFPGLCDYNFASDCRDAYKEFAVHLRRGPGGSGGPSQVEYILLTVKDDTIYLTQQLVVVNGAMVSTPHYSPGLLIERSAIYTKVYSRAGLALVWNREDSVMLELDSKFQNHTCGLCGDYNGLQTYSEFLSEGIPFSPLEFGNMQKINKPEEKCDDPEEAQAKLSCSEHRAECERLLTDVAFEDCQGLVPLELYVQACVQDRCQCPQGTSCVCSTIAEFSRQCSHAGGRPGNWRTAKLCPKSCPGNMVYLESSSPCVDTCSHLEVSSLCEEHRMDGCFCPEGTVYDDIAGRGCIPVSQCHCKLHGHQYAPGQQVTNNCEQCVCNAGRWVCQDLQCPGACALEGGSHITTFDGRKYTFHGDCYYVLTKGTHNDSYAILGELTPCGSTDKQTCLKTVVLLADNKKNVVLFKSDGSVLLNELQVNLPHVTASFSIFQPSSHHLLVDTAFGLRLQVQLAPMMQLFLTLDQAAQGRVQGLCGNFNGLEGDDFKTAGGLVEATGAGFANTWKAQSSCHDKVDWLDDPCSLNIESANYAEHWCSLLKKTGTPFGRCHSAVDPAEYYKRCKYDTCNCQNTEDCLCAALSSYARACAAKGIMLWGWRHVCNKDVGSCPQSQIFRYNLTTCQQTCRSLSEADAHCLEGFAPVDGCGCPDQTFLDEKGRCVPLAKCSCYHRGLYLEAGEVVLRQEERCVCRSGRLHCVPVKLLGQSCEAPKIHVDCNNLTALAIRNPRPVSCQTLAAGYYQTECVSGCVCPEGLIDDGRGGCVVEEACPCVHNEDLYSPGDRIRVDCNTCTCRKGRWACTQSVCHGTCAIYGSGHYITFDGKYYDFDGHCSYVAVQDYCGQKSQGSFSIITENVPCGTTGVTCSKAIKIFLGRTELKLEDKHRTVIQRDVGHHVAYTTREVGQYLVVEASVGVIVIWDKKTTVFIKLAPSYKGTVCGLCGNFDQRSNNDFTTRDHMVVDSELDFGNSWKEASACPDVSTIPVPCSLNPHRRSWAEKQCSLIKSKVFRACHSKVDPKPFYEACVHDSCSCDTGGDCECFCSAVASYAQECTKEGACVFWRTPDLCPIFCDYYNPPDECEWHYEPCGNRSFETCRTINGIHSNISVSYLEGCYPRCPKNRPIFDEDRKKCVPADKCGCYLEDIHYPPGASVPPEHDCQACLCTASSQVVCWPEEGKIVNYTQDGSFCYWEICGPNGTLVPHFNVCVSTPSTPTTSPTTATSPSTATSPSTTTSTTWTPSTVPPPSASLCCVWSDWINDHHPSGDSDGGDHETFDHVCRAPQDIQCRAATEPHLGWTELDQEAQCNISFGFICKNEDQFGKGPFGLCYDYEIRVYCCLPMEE

With “GST-MAM^HS (multivalent adhesion molecule from the gut commensal Escherichia coli HS, ΔTM construct) (domain or fragment)”, the loss of binding as percent of the loss seen with wild-type supernatant (24 h treatment of mucin with anSME mutant supernatant) amounted to 25% and the loss of binding as percent of the loss seen with wild-type supernatant (72 h treatment of mucin with anSME mutant supernatant) is 50%.
